One assay concerns the target T1, huPAR (Homo sapiens, UniProt Q03405).
T1 construct: Sf9 cells expressing full length huPAR ("fluPAR", day 2 post infection); expressed in transfected cells; host or cells: Sf9 insect cells (day 2 post infection)
Nature of the assay: Recovery of phage on Sf9 cells expressing full length huPAR. It is filed as binding. The note with it: phage displaying the sequence; Sf9 cells expressing fluPAR. On the procedure: 1.) 15mer phage (2.5×10^10) prepared as described above were selected by coincubation with 10^6 Sf9 cells expressing full length huPAR ("fluPAR", day 2 post infection) at room temperature for 60 minutes in Grace's medium with 2% nonfat milk. Binding phage were eluted with 6M urea (pH 2.2), the pH neutralized by adding 2M Tris-HCl, and assayed. The yield of binding phage was 0.0013% (3.3×10^5 pfu). The phage were amplified on solid agar plates as plaques, eluted with Tris-buffered saline, and precipitated with polyethylene glycol.
(§1) 3.) The phage selected in round 2 were reselected on Sf9 cells expressing fluPAR (day 2 post-infection) as described for round 1 (2.8×10^10 phage on 10^6 Sf9 cells). The yield of binding phage from this round was 5.40% (1.5×10^9 pfu), indicating a substantial enrichment in binding phage. Sample phage from the urea eluate were cloned, and their DNAs isolated and sequenced. Binding was assayed against Sf9 cells expressing fluPAR, and Sf9 cells expressing substance P receptor ("SPR," as a control).

Assay [1] addresses T2, substance P receptor (SPR) (Homo sapiens, UniProt P25103).
T2 construct: expressed in transfected cells; host or cells: Sf9 insect cells
Kind of assay: Recovery of phage on Sf9 cells expressing substance P receptor (control). Format: binding. The settings on record: phage displaying the sequence. The method, then:
as §1

Another assay concerns the target T3, human urokinase receptor (Homo sapiens, UniProt Q03405).
T3 construct: expressed as a truncated, soluble molecule as described previously for mouse L-cells (Masucci et al., J Biol Chem (1991) 266:8655); made in house; host or cells: baculovirus / insect cells
Kind of assay: Competition of 125I-ATF binding to immobilized soluble recombinant human urokinase receptor. The note with it: read-out: Affinity. The text has this:
4.) The peptides encoded by 25 phage were then synthesized by solid phase peptide chemistry on an Applied Biosystems Model 430A peptide synthesizer,using Boc chemistry, or were obtained from Chiron Mimotopes, Ltd., as soluble peptides. All peptides contained the Ala-Glu dipeptide at the amino terminus and were amidated at the carboxy terminus.
Baculovirus-derived recombinant human urokinase receptor was expressed as a truncated, soluble molecule as described previously for mouse L-cells (Masucci et al., J Biol Chem (1991) 266:8655). The purified receptor was biotinylated with NHS-biotin, and immobilized at 1 μg/mL in PBS/0.1% BSA on streptavidin coated 96-well plates. Human uPA ATF (residues 1-135, obtained from M. Shuman, University of California, San Francisco) was iodinated using the Iodogen method (Pierce), and used as tracer. The ^125 I-ATF was incubated at 100-500 pM with increasing amounts of peptide from 1 nM to 10 μM in triplicate for 2 hours at room temperature in 0.1% BSA/PBS in a total volume of 200 μL. The plates were then washed 3 times with PBS/BSA, and the remaining bound radioactivity determined.
*Assay performed at 100 pM ATF, 0.3 μg/ml suPAR in 200 μL. Other
assays are corrected to these conditions; corrections are about 3 ×
from previous assay conditions.

Another assay has as its target uPAR (Homo sapiens, UniProt Q03405). The note with it: Appella et al. 1987; cited from earlier work.
[2] abbreviates: unstarred values: corrected to 100 pM ATF, 0.3 μg/ml suPAR, corrections about 3 × from previous assay conditions.

Read-outs that look alike come from different tables or passages of the source. Peptide text beside a SMILES is read from it.

T3 sequence (Q03405 23-299 limits assumed): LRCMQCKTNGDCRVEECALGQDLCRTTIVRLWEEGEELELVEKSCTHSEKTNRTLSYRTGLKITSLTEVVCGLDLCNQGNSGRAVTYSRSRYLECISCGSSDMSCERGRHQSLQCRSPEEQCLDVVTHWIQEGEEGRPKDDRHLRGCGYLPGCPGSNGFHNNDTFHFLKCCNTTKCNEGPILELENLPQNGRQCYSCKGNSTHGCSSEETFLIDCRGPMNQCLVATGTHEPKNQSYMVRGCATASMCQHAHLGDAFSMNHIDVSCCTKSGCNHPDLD
T2 sequence (P25103 whole entry, species assumed): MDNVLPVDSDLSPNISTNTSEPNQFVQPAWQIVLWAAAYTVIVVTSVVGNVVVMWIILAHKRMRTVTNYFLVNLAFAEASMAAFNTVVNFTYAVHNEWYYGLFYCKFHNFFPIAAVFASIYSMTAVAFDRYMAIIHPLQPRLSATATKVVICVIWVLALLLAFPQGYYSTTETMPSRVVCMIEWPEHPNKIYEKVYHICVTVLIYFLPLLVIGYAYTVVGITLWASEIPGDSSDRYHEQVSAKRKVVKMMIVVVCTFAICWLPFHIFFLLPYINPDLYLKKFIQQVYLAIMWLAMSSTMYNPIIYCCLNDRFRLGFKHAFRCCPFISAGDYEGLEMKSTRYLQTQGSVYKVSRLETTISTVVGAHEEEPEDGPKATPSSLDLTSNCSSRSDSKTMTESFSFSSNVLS
uPAR, sequence (Q03405 23-335, species assumed): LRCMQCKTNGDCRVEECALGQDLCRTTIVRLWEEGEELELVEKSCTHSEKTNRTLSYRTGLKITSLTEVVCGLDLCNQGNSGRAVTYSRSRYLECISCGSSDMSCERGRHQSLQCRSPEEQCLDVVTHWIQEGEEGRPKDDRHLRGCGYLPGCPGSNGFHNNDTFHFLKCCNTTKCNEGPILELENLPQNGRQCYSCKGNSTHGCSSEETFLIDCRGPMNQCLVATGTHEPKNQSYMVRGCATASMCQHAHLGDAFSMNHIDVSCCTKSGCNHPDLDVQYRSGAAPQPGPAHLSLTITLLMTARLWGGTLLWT
T1 sequence (Q03405 23-335): as the sequence (Q03405 23-335, species assumed) above

Regarding “37 (AECLNGGTAVSNKYFSNIHWCN) [compound 37]”, in the assay with huPAR, the “% Recovery huPAR” value worked out at 6.8%. Moreover, the “% Recovery SPR” value in assay [1] is listed as 0.008%.
Take `CC(C)C[C@H](NC(=O)CNC(=O)[C@@H]1CCCN1C(=O)[C@H](Cc1c[nH]cn1)NC(=O)[C@H](Cc1c[nH]c2ccccc12)NC(=O)[C@H](CCC(=O)O)NC(=O)[C@H](C)N)C(=O)N[C@@H](CO)C(=O)N[C@@H](Cc1ccccc1)C(=O)NCC(=O)N[C@@H](CO)C(=O)N[C@@H](Cc1ccc(O)cc1)C(=O)N[C@@H](CC(C)C)C(=O)N[C@@H](Cc1c[nH]c2ccccc12)C(=O)N[C@@H](CO)C(=O)N[C@@H](CCCCN)C(=O)N[C@H](C(N)=O)[C@@H](C)O` [compound 2] (H-AEWHPGLSFGSYLWSKT-NH2): the Kd on human urokinase receptor (setting [2]) worked out at 0.35 µM.
Same read-out and setting: then `CSCC[C@H](NC(=O)[C@@H](NC(=O)[C@H](CC(N)=O)NC(=O)[C@H](CO)NC(=O)[C@H](CC(C)C)NC(=O)[C@H](Cc1ccccc1)NC(=O)[C@H](Cc1c[nH]c2ccccc12)NC(=O)[C@H](C)NC(=O)[C@H](CCC(=O)O)NC(=O)[C@H](C)N)[C@@H](C)O)C(=O)N[C@@H](CCCCN)C(=O)N[C@@H](C)C(=O)N[C@@H](CC(C)C)C(=O)N[C@@H](CO)C(=O)N[C@@H](C)C(=O)N[C@@H](CCCNC(=N)N)C(=O)N[C@@H](CC(C)C)C(N)=O` [compound 13] (H-AEAWFLSNTMKALSARL-NH2), with 5 µM.
With `CC(C)C[C@H](NC(=O)[C@H](CCCNC(=N)N)NC(=O)[C@H](CC(C)C)NC(=O)[C@@H]1CCCN1C(=O)[C@H](Cc1ccccc1)NC(=O)[C@H](CCC(N)=O)NC(=O)[C@H](Cc1ccc(O)cc1)NC(=O)[C@H](CC(C)C)NC(=O)[C@H](CCC(N)=O)NC(=O)[C@H](Cc1c[nH]c2ccccc12)NC(=O)[C@H](CC(C)C)NC(=O)[C@@H](NC(=O)[C@@H]1CCCN1C(=O)[C@H](CCC(=O)O)NC(=O)[C@H](C)N)[C@@H](C)O)C(=O)N[C@@H](CO)C(=O)NCC(N)=O` [compound 14] (H-AEPTLWQLYQFPLRLSG-NH2), the Kd on human urokinase receptor (starred values: assay performed at 100 pM ATF, 0.3 μg/ml suPAR in 200 μL) turned out to be 4 µM.
For the molecule “uPA12-32: The critical domain alone, residues 12-32 of uPA EGF-like domain (DCLNGGTCVSNKYFSNIHWCN; UniProt P00749 32-52, looked up, fragment)”, in the assay with uPAR, the “affinity fold less than intact ATF” value was “about 100 fold”.

The record behind these values is US5679782A, “Oligonucleotides encloding peptide inhibitors of urokinase receptor activity” (Chiron Corporation, priority 1995, dated 1997).
